The supplement of paper PMC11208486
± gives the uncertainty stated by the source.

Assay: specific initial activity, cyclohex-2-enone reduction (U mg-1); higher = more active
Method: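 Purified His-tagged ene reductases in 50 mM sodium phosphate pH 7.4 with 0-30% (v/v) organic co-solvent. Melting temperature was measured by the ThermoFMN assay (FMN fluorescence, 20-90 °C at 1 °C/min, inflection point, triplicate). Specific initial activity was measured with 10 mM cyclohex-2-enone and 0.2 mM NAD(P)H (NADH for LacER) as A340 depletion, at room temperature (DMSO, 2-propanol, n-propanol) or 25 °C (EtOH, MeOH), in triplicate. The TsOYE Tm is above the 90 °C measurement range.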

[1] = co-solvent: 2-propanol, co-solvent concentration (% v/v): 0
[2] = co-solvent: 2-propanol, co-solvent concentration (% v/v): 5
[3] = co-solvent: 2-propanol, co-solvent concentration (% v/v): 10
[4] = co-solvent: 2-propanol, co-solvent concentration (% v/v): 15
[5] = co-solvent: 2-propanol, co-solvent concentration (% v/v): 20
[6] = co-solvent: 2-propanol, co-solvent concentration (% v/v): 25
[7] = co-solvent: 2-propanol, co-solvent concentration (% v/v): 30
[8] = co-solvent: dimethyl sulfoxide, co-solvent concentration (% v/v): 0
[9] = co-solvent: dimethyl sulfoxide, co-solvent concentration (% v/v): 5
[10] = co-solvent: dimethyl sulfoxide, co-solvent concentration (% v/v): 10
[11] = co-solvent: dimethyl sulfoxide, co-solvent concentration (% v/v): 15
[12] = co-solvent: dimethyl sulfoxide, co-solvent concentration (% v/v): 20
[13] = co-solvent: dimethyl sulfoxide, co-solvent concentration (% v/v): 25
[14] = co-solvent: dimethyl sulfoxide, co-solvent concentration (% v/v): 30
[15] = co-solvent: ethanol, co-solvent concentration (% v/v): 0
[16] = co-solvent: ethanol, co-solvent concentration (% v/v): 5
[17] = co-solvent: ethanol, co-solvent concentration (% v/v): 10
[18] = co-solvent: ethanol, co-solvent concentration (% v/v): 15
[19] = co-solvent: ethanol, co-solvent concentration (% v/v): 20
[20] = co-solvent: ethanol, co-solvent concentration (% v/v): 25
[21] = co-solvent: ethanol, co-solvent concentration (% v/v): 30
[22] = co-solvent: methanol, co-solvent concentration (% v/v): 0
[23] = co-solvent: methanol, co-solvent concentration (% v/v): 5
[24] = co-solvent: methanol, co-solvent concentration (% v/v): 10
[25] = co-solvent: methanol, co-solvent concentration (% v/v): 15
[26] = co-solvent: methanol, co-solvent concentration (% v/v): 20
[27] = co-solvent: methanol, co-solvent concentration (% v/v): 25
[28] = co-solvent: methanol, co-solvent concentration (% v/v): 30
[29] = co-solvent: n-propanol, co-solvent concentration (% v/v): 0
[30] = co-solvent: n-propanol, co-solvent concentration (% v/v): 5
[31] = co-solvent: n-propanol, co-solvent concentration (% v/v): 10
[32] = co-solvent: n-propanol, co-solvent concentration (% v/v): 15
[33] = co-solvent: n-propanol, co-solvent concentration (% v/v): 20
[34] = co-solvent: n-propanol, co-solvent concentration (% v/v): 25
[35] = co-solvent: n-propanol, co-solvent concentration (% v/v): 30

Row | Sequence | specific initial activity [1] | specific initial activity [2] | specific initial activity [3] | specific initial activity [4] | specific initial activity [5] | specific initial activity [6] | specific initial activity [7] | specific initial activity [8] | specific initial activity [9] | specific initial activity [10] | specific initial activity [11] | specific initial activity [12] | specific initial activity [13] | specific initial activity [14] | specific initial activity [15] | specific initial activity [16] | specific initial activity [17] | specific initial activity [18] | specific initial activity [19] | specific initial activity [20] | specific initial activity [21] | specific initial activity [22] | specific initial activity [23] | specific initial activity [24] | specific initial activity [25] | specific initial activity [26] | specific initial activity [27] | specific initial activity [28] | specific initial activity [29] | specific initial activity [30] | specific initial activity [31] | specific initial activity [32] | specific initial activity [33] | specific initial activity [34] | specific initial activity [35]
1 | MNPKYKPLFEPFTFKSGVTINNRIAVAPMTHYASNEDGTISEAELDYIIPRSKEMGMVITACANVTPDGKAFPGQPAIHDDSNIPGLKKLAQAIQAQGAKAVVQIHHGGIECPSELVPQQDVVGPSDVFDNGKQIARALTEEEVENIVKAFGEATRRAIEAGFDGVEIHGANGYLIQQFYSPKTNQRTDRWGGSDEKRLAFPLAIVDEVKKAASEHAKGAFLVGYRLSPEEPETPGLTMTETYTLVDALGDKELDYLHISLMDVNSKARRGADPTRTRMDLLNERVGNKVPLIAVGSIHSADDALAVIENGIPLVAMGREILVDPNWTVKVKEGREKQIETVIKGTDKEKYHLPEPLWQAIVNTQGWVPYKD | 5.75 ± 0.28 | 6.02 ± 0.29 | 6.11 ± 0.24 | 6.21 ± 0.37 | 6.17 ± 0.29 | 5.81 ± 0.49 | 5.26 ± 0.24 | 4.09 ± 0.12 | 4.4 ± 0.11 | 4.34 ± 0.17 | 4.41 ± 0.29 | 4.2 ± 0.38 | 4.35 ± 0.44 | 4.2 ± 0.46 | 5.73 ± 0.43 | 5.9 ± 0.14 | 6.22 ± 0.39 | 6.67 ± 0.56 | 6.21 ± 0.7 | 6.62 ± 0.84 | 5.96 ± 0.43 | 5.71 ± 0.54 | 6.14 ± 0.51 | 5.62 ± 0.49 | 5.36 ± 0.24 | 5.05 ± 0.21 | 5.09 ± 0.59 | 4.27 ± 0.27 | 5.25 ± 0.46 | 5.2 ± 0.41 | 4.82 ± 0.17 | 4.55 ± 0.2 | 4.07 ± 0.42 | 3.69 ± 0.3 | 2.94 ± 0.14
2 | MSFVKDFKPQALGDTNLFKPIKIGNNELLHRAVIPPLTRMRALHPGNIPNRDWAVEYYTQRAQRPGTMIITEGAFISPQAGGYDNAPGVWSEEQMVEWTKIFNAIHEKKSFVWVQLWVLGWAAFPDNLARDGLRYDSASDNVFMDAEQEAKAKKANNPQHSLTKDEIKQYIKEYVQAAKNSIAAGADGVEIHSANGYLLNQFLDPHSNTRTDEYGGSIENRARFTLEVVDALVEAIGHEKVGLRLSPYGVFNSMSGGAETGIVAQYAYVAGELEKRAKAGKRLAFVHLVEPRVTNPFLTEGEGEYEGGSNDFVYSIWKGPVIRAGNFALHPEVVREEVKDKRTLIGYGRFFISNPDLVDRLEKGLPLNKYDRDTFYQMSAHGYIDYPTYEEALKLGWDKK | 1.22 ± 0.04 | 1.54 ± 0.08 | 1.7 ± 0.08 | 1.86 ± 0.06 | 1.8 ± 0.1 | 2 ± 0.09 | 2.05 ± 0.07 | 1.31 ± 0.12 | 1.43 ± 0.16 | 1.35 ± 0.05 | 1.31 ± 0.14 | 1.38 ± 0.06 | 1.32 ± 0.13 | 1.32 ± 0.08 | 1.49 ± 0.06 | 1.58 ± 0.11 | 1.78 ± 0.1 | 1.97 ± 0.14 | 2 ± 0.17 | 2.1 ± 0.04 | 2.46 ± 0.11 | 1.55 ± 0.06 | 1.72 ± 0.05 | 1.81 ± 0.07 | 2.07 ± 0.07 | 2.23 ± 0.15 | 2.42 ± 0.11 | 2.58 ± 0.11 | 1.3 ± 0.03 | 1.59 ± 0.06 | 1.83 ± 0.2 | 1.81 ± 0.18 | 1.86 ± 0.15 | 1.84 ± 0.13 | 1.96 ± 0.14
